# Experimental data taken from paper PMC11662656, “Intrinsically disordered RNA-binding motifs cooperate to catalyze RNA folding and drive phase separation”.
# T1: Loc1p array peptide A9 (Saccharomyces cerevisiae, UniProt P43586 25-44)
# T1 chain: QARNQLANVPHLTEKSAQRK
# T2: Loc1p array peptide A10 (Saccharomyces cerevisiae, UniProt P43586 28-47)
# T2 chain: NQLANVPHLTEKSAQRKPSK
# T3: Loc1p array peptide B19 (Saccharomyces cerevisiae, UniProt P43586 115-134)
# T3 chain: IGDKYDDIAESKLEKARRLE
# T4: Loc1p array peptide A7 (Saccharomyces cerevisiae, UniProt P43586 19-38)
# T4 chain: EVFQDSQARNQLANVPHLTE
# T5: Loc1p array peptide A11 (Saccharomyces cerevisiae, UniProt P43586 31-50)
# T5 chain: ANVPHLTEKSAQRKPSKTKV
# T6: Loc1p (3-15) (Saccharomyces cerevisiae, UniProt P43586 3-15)
# T6 chain: PKKPSKRQNLRRE
# Columns and labels:
# Loc1p array peptide C15 = Loc1p array peptide C15 (Saccharomyces cerevisiae, UniProt P43586 163-182); experiment: peptide array; EMSA: 20 mM HEPES pH 7.8, 200 mM NaCl, 2 mM MgCl2, 2 mM DTT, 4% glycerol, 25 C, 5 nM RNA, 100 ug/ml tRNA (omitted in competition); NMR: 20 mM Na phosphate pH 7.4, 50 mM NaCl, 278 K; details: tags: array-immobilized; label: radioactive
# Loc1p array peptide A15 = Loc1p array peptide A15 (Saccharomyces cerevisiae, UniProt P43586 43-62); experiment: as above; details: tags: array-immobilized; label: radioactive
# Loc1p array peptide B6 = Loc1p array peptide B6 (Saccharomyces cerevisiae, UniProt P43586 76-95); experiment: as above; details: tags: array-immobilized; label: radioactive
# Loc1p array peptide B7 = Loc1p array peptide B7 (Saccharomyces cerevisiae, UniProt P43586 79-98); experiment: as above; details: tags: array-immobilized; label: radioactive
# Loc1p array peptide A9 = target: T1, Loc1p array peptide A9; experiment: as above; details: tags: array-immobilized; label: radioactive
# Loc1p array peptide A10 = target: T2, Loc1p array peptide A10; experiment: as above; details: tags: array-immobilized; label: radioactive
# Loc1p array peptide B5 = Loc1p array peptide B5 (Saccharomyces cerevisiae, UniProt P43586 73-92); experiment: as above; details: tags: array-immobilized; label: radioactive
# Loc1p array peptide A14 = Loc1p array peptide A14 (Saccharomyces cerevisiae, UniProt P43586 40-59); experiment: as above; details: tags: array-immobilized; label: radioactive
# Loc1p array peptide B8 = Loc1p array peptide B8 (Saccharomyces cerevisiae, UniProt P43586 82-101); experiment: as above; details: tags: array-immobilized; label: radioactive
# Loc1p array peptide B19 = target: T3, Loc1p array peptide B19; experiment: as above; details: tags: array-immobilized; label: radioactive
# Loc1p array peptide A7 = target: T4, Loc1p array peptide A7; experiment: as above; details: tags: array-immobilized; label: radioactive
# Loc1p array peptide A11 = target: T5, Loc1p array peptide A11; experiment: as above; details: tags: array-immobilized; label: radioactive
# MBP-Loc1p [1] = target: T7, MBP-Loc1p (Saccharomyces cerevisiae, UniProt P43586 1-204); experiment: competition; vs labeled TAR-57; 10-500x; EMSA: 20 mM HEPES pH 7.8, 200 mM NaCl, 2 mM MgCl2, 2 mM DTT, 4% glycerol, 25 C, 5 nM RNA, 100 ug/ml tRNA (omitted in competition); NMR: 20 mM Na phosphate pH 7.
# Loc1p [2] = target: Loc1p (Saccharomyces cerevisiae, UniProt P43586 1-204); experiment: EMSA; nanomolar range; 100 ug/ml yeast tRNA; EMSA: 20 mM HEPES pH 7.8, 200 mM NaCl, 2 mM MgCl2, 2 mM DTT, 4% glycerol, 25 C, 5 nM RNA, 100 ug/ml tRNA (omitted in competition); NMR: 20 mM Na phosphate pH 7.
# MBP-Loc1p [3] = target: T7, MBP-Loc1p; experiment: competition; vs labeled ASH1 E3; 10-500x; EMSA: 20 mM HEPES pH 7.8, 200 mM NaCl, 2 mM MgCl2, 2 mM DTT, 4% glycerol, 25 C, 5 nM RNA, 100 ug/ml tRNA (omitted in competition); NMR: 20 mM Na phosphate pH 7.
# MBP-Loc1p [4] = target: T8, MBP-Loc1p (Saccharomyces cerevisiae, UniProt P43586 1-204); experiment: competition; vs labeled TAR-57; 10-500x; EMSA: 20 mM HEPES pH 7.8, 200 mM NaCl, 2 mM MgCl2, 2 mM DTT, 4% glycerol, 25 C, 5 nM RNA, 100 ug/ml tRNA (omitted in competition); NMR: 20 mM Na phosphate pH 7.4, 50 mM NaCl, 278 K; details: protein: recombinant; tags: MBP
# MBP-Loc1p [5] = target: T7, MBP-Loc1p; experiment: EMSA; 100 nM DNA; affinity similar to ssRNA; EMSA: 20 mM HEPES pH 7.8, 200 mM NaCl, 2 mM MgCl2, 2 mM DTT, 4% glycerol, 25 C, 5 nM RNA, 100 ug/ml tRNA (omitted in competition); NMR: 20 mM Na phosphate pH 7.
# Loc1p (3-15) = target: T6, Loc1p (3-15); experiment: NMR (1H-15N HSQC titration); range over peptide signals; EMSA: 20 mM HEPES pH 7.8, 200 mM NaCl, 2 mM MgCl2, 2 mM DTT, 4% glycerol, 25 C, 5 nM RNA, 100 ug/ml tRNA (omitted in competition); NMR: 20 mM Na phosphate pH 7.4, 50 mM NaCl, 278 K; details: protein: recombinant; tags: GST removed by thrombin (15N,13C sample); hairpin, 11 bp stem, GAAA loop
# MBP-Loc1p [6] = target: T8, MBP-Loc1p; experiment: competition; vs labeled ASH1 E3; 10-500x; EMSA: 20 mM HEPES pH 7.8, 200 mM NaCl, 2 mM MgCl2, 2 mM DTT, 4% glycerol, 25 C, 5 nM RNA, 100 ug/ml tRNA (omitted in competition); NMR: 20 mM Na phosphate pH 7.4, 50 mM NaCl, 278 K; details: protein: recombinant; tags: MBP; hairpin
# Loc1p [7] = target: Loc1p (Saccharomyces cerevisiae, UniProt P43586 1-204); experiment: EMSA; nanomolar range; 100 ug/ml yeast tRNA; EMSA: 20 mM HEPES pH 7.8, 200 mM NaCl, 2 mM MgCl2, 2 mM DTT, 4% glycerol, 25 C, 5 nM RNA, 100 ug/ml tRNA (omitted in competition); NMR: 20 mM Na phosphate pH 7.4, 50 mM NaCl, 278 K; details: protein: recombinant; hairpin
binder,measurement,setting,value
ASH1 E3 (short) (structured_RNA) RNA: AUGGAUAACUGAAUCUCUUUCAACUAAUAAGAGACAUUAUCACGAAACAAU,binding result,Loc1p array peptide C15,binds
same,binding result,Loc1p array peptide A15,binds
same,binding result,Loc1p array peptide B6,binds
same,binding result,Loc1p array peptide B7,binds
same,binding result,Loc1p array peptide A9,binds
same,binding result,Loc1p array peptide A10,binds
same,binding result,Loc1p array peptide B5,binds
same,binding result,Loc1p array peptide A14,binds
same,binding result,Loc1p array peptide B8,binds
same,binding result,Loc1p array peptide B19,no binding
same,binding result,Loc1p array peptide A7,no binding
same,binding result,Loc1p array peptide A11,binds
CGAAGAUGAAAAUGAUCACGAGAGAGAUCCCGAACAAUUUUCAGAAUUUG (ssRNA) [EAR1 LE],binding result,MBP-Loc1p [1],binds
same,binding result,Loc1p [2],binds
poly-A60 (ssRNA) RNA: AAAAAAAAAAAAAAAAAAAAAAAAAAAAAAAAAAAAAAAAAAAAAAAAAAAAAAAAAAAA,binding result,MBP-Loc1p [3],binds
same,binding result,MBP-Loc1p [4],binds
same,binding result,Loc1p [2],binds
AAAAAAAAAAAAAAAAAAAAA (ssDNA) [Cy3-A(21) ssDNA],binding result,MBP-Loc1p [5],binds
UCUCUGGUUAGGAAACUAACUAGGGA (structured_RNA) [dsRNA tetraloop],Kd,Loc1p (3-15),~73.7 µM
HIV TAR-57 (structured_RNA) RNA: GGUCUCUCUGGUUAGACCAGAUCUGAGCCUGGGAGCUCUCUGGCUAACUAGGGAACC,binding result,MBP-Loc1p [6],binds
same,binding result,Loc1p [7],binds
